# What was measured:
# [1] = target: T1, protein kinase A (Mus musculus, UniProt P05132); assay: Selection for protein kinase A substrates from the DNA-programmed peptide library; gene/peptide enrichment by Illumina sequencing; format: biochemical, murine; settings: for LTFE: In (total fold enrichment) after four rounds: after four rounds of PKA substrate selection, kinase-treated vs control population; for Rank: position on list of peptides ranked by fold enrichment: calculated by summing reads over the 1296 genes encoding each peptide, peptide-DNA conjugates
# T1 construct: purchased New England Biolabs P6000L
# Procedure: Programmed library synthesis was carried out by a series of DNA-directed library splitting steps followed by chemical coupling steps. For the splitting steps, the ssDNA library was hybridized to an anticodon array overnight at 37° C. using a mesofluidic hybridization pump (see, e.g., Weisinger et al. (2012) PLoS ONE, 7, e28056). The anticodon array with bound DNA was then mounted into a plate adapter device which uses rubber gaskets to form an isolated liquid channel above and below each array feature. The adapter device was placed on top of a 384-well polypropylene filterplate loaded with 5 μl aliquots of DEAE sepharose resin. DNA was eluted from each feature of the anticodon array onto the DEAE resin in the corresponding well of the filterplate by application of a denaturing buffer (10 mM NaOH with 1 mM EDTA and 0.005% Triton X-100) followed by gentle centrifugation of the stack (140×g for 1 minute). The DEAE resin in the filter plate was then washed three times with 85 μl H2O and three times with 85 μl dry methanol. Peptide couplings were performed using EDC and HOAt in methanol and DMF (see, e.g., Halpin et al., (2004) PLoS Biology, 2, E174). Following the synthetic steps, the filterplate was placed on top of a 384-well polypropylene microtiter plate, and DNA was eluted from the DEAE resin by application of a high salt buffer (1.5 M NaCl, 50 mM NaOH, 1 mM EDTA, and 0.005% Triton X-100) followed by gentle centrifugation. The eluted DNA was pooled, concentrated and buffer exchanged into hybridization buffer using a centrifugal filter device with a 10,000 Da molecular weight cut-off (GE Healthcare). BSA and tRNA were added to 0.5 mg/ml each. The sample was diluted to 3 ml with hybridization buffer and applied to another anticodon array. Following the final step of the chemical synthesis, the eluted DNA was split by hybridization for 3 hours at 37° C. to a pair of anticodon columns derivatized with the VE001 and VE002 anticodon sequences. The two halves of the library were concentrated with n-butanol extractions, precipitated with isopropanol, and subjected to kinase-substrate/mock selections respectively.
# Translated libraries were incubated in PKA buffer (NEB) overnight at 30° C. with 10,000 units of protein kinase A and 1 mM ATPγS. For the selection between the third and fourth generations, the incubation was shortened to 1 hour at 30° C. Mock selections were performed identically, with the enzyme replaced by a 50% glycerol solution. After incubation, the crude reactions were diluted 1.5-fold and adjusted to 100 mM NaOAc pH 5.2 and 25% dimethyl formamide. EZ-Link iodoacetyl-LC-biotin (Pierce Thermo Fisher Scientific, catalog #21333) was added to 600 μM. After 3 hours in the dark at 25° C., the enzyme-treated library was cleaned up by extraction with phenol: chloroform and n-butanol, and then precipitation with isopropanol. The library was resuspended in 27.5 μl bind buffer (10 mM Tris pH 7.4, 1 mM EDTA, 1 M NaCl), and 1.25 mg/ml tRNA and 0.25 mg/ml BSA were added. The library was then incubated with 15 μl of μMACS streptavidin microbeads (MiltenyiBiotec, 130-074-101) overnight at room temperature. The microbeads were purified and washed over MACS columns according to the manufacturer's instructions, and the purification process was repeated a second time. DNA was amplified directly off of the streptavidin beads by PCR.
# 25 pmol of amplified DNA was used as a template in a PCR reaction that appended Illumina adaptor sequences. The PCR product was quantified on an Agilent 2100 Bioanalyzer, and a 10 nM solution was submitted to the Stanford Functional Genomics Facility for sequencing using custom primers. Paired-end 150-bp reads were obtained on a MiSeqIllumina Sequencer.
# The sequencing data were processed using scripts written in either AWK or MATLAB. […]
# [2] = tested on: T2, Kemptide heptapeptide LRRASLG (SEQ ID NO: 10)
# T2 sequence: LRRASLG
# [3] = tested on: T3, RRMTV (SEQ ID NO: 6)
# T3 sequence: RRMTV
# [4] = tested on: T4, RRMS (SEQ ID NO: 9)
# T4 sequence: RRMS
# [5] = tested on: T5, RMSF (SEQ ID NO: 7)
# T5 sequence: RMSF
# [6] = tested on: T6, RRASL (SEQ ID NO: 3)
# T6 sequence: RRASL
# [7] = tested on: T7, RRFSV (SEQ ID NO: 4)
# T7 sequence: RRFSV
# [8] = tested on: T8, RRSFV (SEQ ID NO: 2)
# T8 sequence: RRSFV
# [9] = tested on: T9, RRMSV (SEQ ID NO: 5)
# T9 sequence: RRMSV
# [10] = tested on: T10, RRSF (SEQ ID NO: 8)
# T10 sequence: RRSF
Substance,LTFE: In (total fold enrichment) after four rounds [1],Rank: position on list of peptides ranked by fold enrichment ([1]; fourth generation),also measured
RRMS,3.0,1846,
RRSFL,,,peptide enrichment in the fourth generation library (result in words) ([1]; reads of the 6^4 (1296) genes per peptide summed): most highly enriched peptide
RRASL (sythetic peptide),10.6,20,
RRSFV,11.1,7,"median enrichment of the genes encoding the peptide ([1]; fourth generation, single genes (one codon per amino acid model)): 175,000 fold"
RMSF,7.6,147,
RRFSV,10.2,33,
catalytic subunit of murine cAMP-activated protein kinase A,,,Rel. kcat/Km (relative to Kemptide) [2]: 1; Rel. kcat/Km (relative to Kemptide) [3]: 0.031; Rel. kcat/Km (relative to Kemptide) [4]: 0.028; Rel. kcat/Km (relative to Kemptide) [5]: 0.0028; Rel. kcat/Km (relative to Kemptide) [6]: 0.27; Rel. kcat/Km (relative to Kemptide) [7]: 4.1; Rel. kcat/Km (relative to Kemptide) [8]: 0.16; Rel. kcat/Km (relative to Kemptide) [9]: 2.2; Rel. kcat/Km (relative to Kemptide) [10]: 0.05
RRMSV,9.5,51,
RRSF,6.3,253,
RRMTV,8.4,95,
